From US20100204105A1 (ZEALAND PHARMA A S, published 2010)

Key:
[1] = molecular target: human glucagon receptor (Glucagon-R) (human, UniProt P47871 26-477); assay: cell-based or functional assay
[2] = molecular target: human glucagon-like peptide 1 receptor (GLP-1R) (human, UniProt P43220 24-463); assay: cell-based or functional assay

Chain of human glucagon receptor (Glucagon-R) (P47871 26-477): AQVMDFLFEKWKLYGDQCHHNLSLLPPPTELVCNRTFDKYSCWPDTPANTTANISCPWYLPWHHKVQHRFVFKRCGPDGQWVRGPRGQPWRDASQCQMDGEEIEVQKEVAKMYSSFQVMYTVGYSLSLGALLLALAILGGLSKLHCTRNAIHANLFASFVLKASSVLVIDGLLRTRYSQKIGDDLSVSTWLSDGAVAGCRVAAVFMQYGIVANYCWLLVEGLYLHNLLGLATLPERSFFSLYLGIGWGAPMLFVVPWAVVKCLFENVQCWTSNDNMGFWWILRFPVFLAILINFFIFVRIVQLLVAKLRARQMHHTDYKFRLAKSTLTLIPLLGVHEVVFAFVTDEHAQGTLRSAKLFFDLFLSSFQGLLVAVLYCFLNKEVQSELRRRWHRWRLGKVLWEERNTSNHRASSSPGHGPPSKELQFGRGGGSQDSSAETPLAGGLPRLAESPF

EC50, cAMP content in HEK293 cells expressing hGlucagon-R (FlashPlate cAMP kit) [1]: 7.3 µM
EC50, cAMP content in HEK293 cells expressing hGlucagon-R (FlashPlate cAMP kit), re-test [1]: 0.00049 µM
EC50, cAMP content in HEK293 cells expressing hGLP-1-R (FlashPlate cAMP kit) [2]: 9.3 µM
Binder: H-HSQGTFTSDYSKYLDRARADDFVAWLKST-NH2 [Compound 3 (H-HSQGTFTSDYSKYLDRARADDFVAWLKST-NH2)]
